Measurements: patent US8840891 (RSR, dated 2014)

Target: human TSHR, wild type, expressed on CHO cells (human) (UniProt P16473)
Assay: cell-based or functional assay

B1: 5C9 IgG (human monoclonal autoantibody to the TSHR) (antibody, from another filing, V domains shown)
VH: EVQLVESGGGLIQPGGSLRLSCAASGFTVSSNYMSWVRQAPGKGLEWVSVTYSGGSTSYADSVKGRFTISRDNSKNTLYLQMNSLRAEDTAVYYCARGGRYCSSISCYARSGCDYWGQGTLVTVSS
VL: AIQMTQSPSSLSASVGDRVTITCRASQSISNYLNWYQQKPGKAPKLLIYAASSLQSGVPSRFSGSGSGTDFTLTISSLQPEDFATYYCQQSYSSPSTTFGQGTKLEIK
% inhibition of basal cyclic AMP production; Exp 2; 5C9 IgG 0.001 µg/mL: 10.8% | % inhibition of basal cyclic AMP production; Exp 2; 5C9 IgG 0.01 µg/mL: 37.2% | % inhibition of basal cyclic AMP production; Exp 2; 5C9 IgG 0.1 µg/mL: 45.7% | % inhibition of basal cyclic AMP production; Exp 2; 5C9 IgG 1 µg/mL: 71% | % inhibition of basal cyclic AMP production; Exp 2; 5C9 IgG 10 µg/mL: 74.6% | % inhibition of basal cyclic AMP production; Exp 2; 5C9 IgG 100 µg/mL: 54.9% | % inhibition of basal cyclic AMP production; Exp 3; 5C9 IgG 0.1 µg/mL: 1% | % inhibition of basal cyclic AMP production; Exp 3; 5C9 IgG 1 µg/mL: 61% | % inhibition of basal cyclic AMP production; Exp 3; 5C9 IgG 10 µg/mL: 59% | % inhibition of basal cyclic AMP production; Exp 3; 5C9 IgG 100 µg/mL: 56% | cyclic AMP; Exp 1; 5C9 1 µg/mL + TSH 3 ng/mL: 13.9 pmol/mL | cyclic AMP; Exp 1; 5C9 10 µg/mL + TSH 3 ng/mL: 3.7 pmol/mL | cyclic AMP; Exp 1; 5C9 10 µg/mL only: 0.45 pmol/mL | cyclic AMP; Exp 1; native human TSH 100 ng/mL + 5C9 IgG 0.001 µg/mL: 36 pmol/mL | cyclic AMP; Exp 1; native human TSH 100 ng/mL + 5C9 IgG 0.01 µg/mL: 18 pmol/mL | cyclic AMP; Exp 1; native human TSH 100 ng/mL + 5C9 IgG 0.1 µg/mL: 0.2 pmol/mL | cyclic AMP; Exp 1; native human TSH 100 ng/mL + 5C9 IgG 1.0 µg/mL: 0.14 pmol/mL | cyclic AMP; Exp 1; native human TSH 100 ng/mL + 5C9 IgG 10 µg/mL: 0.11 pmol/mL | cyclic AMP; Exp 1; native human TSH 100 ng/mL + 5C9 IgG 100 µg/mL: 0.16 pmol/mL | cyclic AMP; Exp 1; recombinant human TSH 100 ng/mL + 5C9 IgG 0.001 µg/mL: 13.6 pmol/mL | cyclic AMP; Exp 1; recombinant human TSH 100 ng/mL + 5C9 IgG 0.01 µg/mL: 8.13 pmol/mL | cyclic AMP; Exp 1; recombinant human TSH 100 ng/mL + 5C9 IgG 0.1 µg/mL: 0.12 pmol/mL | cyclic AMP; Exp 1; recombinant human TSH 100 ng/mL + 5C9 IgG 1.0 µg/mL: 0.1 pmol/mL | cyclic AMP; Exp 1; recombinant human TSH 100 ng/mL + 5C9 IgG 10 µg/mL: 0.12 pmol/mL | cyclic AMP; Exp 1; recombinant human TSH 100 ng/mL + 5C9 IgG 100 µg/mL: 0.19 pmol/mL | cyclic AMP; Exp 2; 5C9 1 µg/mL + TSH 3 ng/mL: 6.1 pmol/mL | cyclic AMP; Exp 2; 5C9 10 µg/mL + TSH 3 ng/mL: 3.1 pmol/mL | cyclic AMP; Exp 2; 5C9 10 µg/mL only: 0.4 pmol/mL | cyclic AMP; Exp 2; native human TSH 100 ng/mL + 5C9 IgG 0.001 µg/mL: 37.6 pmol/mL | cyclic AMP; Exp 2; native human TSH 100 ng/mL + 5C9 IgG 0.01 µg/mL: 34.4 pmol/mL | cyclic AMP; Exp 2; native human TSH 100 ng/mL + 5C9 IgG 0.1 µg/mL: 15.8 pmol/mL | cyclic AMP; Exp 2; native human TSH 100 ng/mL + 5C9 IgG 1.0 µg/mL: 0.13 pmol/mL | cyclic AMP; Exp 2; native human TSH 100 ng/mL + 5C9 IgG 10 µg/mL: 0.18 pmol/mL | cyclic AMP; Exp 2; native human TSH 100 ng/mL + 5C9 IgG 100 µg/mL: 0.21 pmol/mL | cyclic AMP; Exp 2; native porcine TSH 0.3 ng/mL + 5C9 IgG 0.001 µg/mL: 32.7 pmol/mL | cyclic AMP; Exp 2; native porcine TSH 0.3 ng/mL + 5C9 IgG 0.01 µg/mL: 28.2 pmol/mL | cyclic AMP; Exp 2; native porcine TSH 0.3 ng/mL + 5C9 IgG 0.1 µg/mL: 18 pmol/mL | cyclic AMP; Exp 2; native porcine TSH 0.3 ng/mL + 5C9 IgG 1.0 µg/mL: 2.14 pmol/mL | cyclic AMP; Exp 2; native porcine TSH 0.3 ng/mL + 5C9 IgG 10 µg/mL: 0.2 pmol/mL | cyclic AMP; Exp 2; native porcine TSH 0.3 ng/mL + 5C9 IgG 100 µg/mL: 0.18 pmol/mL | cyclic AMP; Exp 2; recombinant human TSH 100 ng/mL + 5C9 IgG 0.001 µg/mL: 20 pmol/mL | cyclic AMP; Exp 2; recombinant human TSH 100 ng/mL + 5C9 IgG 0.01 µg/mL: 20.6 pmol/mL | cyclic AMP; Exp 2; recombinant human TSH 100 ng/mL + 5C9 IgG 0.1 µg/mL: 7.39 pmol/mL | cyclic AMP; Exp 2; recombinant human TSH 100 ng/mL + 5C9 IgG 1.0 µg/mL: 0.07 pmol/mL | cyclic AMP; Exp 2; recombinant human TSH 100 ng/mL + 5C9 IgG 10 µg/mL: 0.07 pmol/mL | cyclic AMP; Exp 2; recombinant human TSH 100 ng/mL + 5C9 IgG 100 µg/mL: 0.11 pmol/mL | cyclic AMP; Exp 3; 5C9 0.01 µg/mL + TSH 3 ng/mL: 33.9 pmol/mL | cyclic AMP; Exp 3; 5C9 0.1 µg/mL + TSH 3 ng/mL: 18.7 pmol/mL | cyclic AMP; Exp 3; 5C9 1 µg/mL + TSH 3 ng/mL: 5.4 pmol/mL | cyclic AMP; Exp 3; 5C9 10 µg/mL + TSH 3 ng/mL: 1.9 pmol/mL | cyclic AMP; Exp 3; 5C9 100 µg/mL + TSH 3 ng/mL: 1.4 pmol/mL | cyclic AMP; Exp 3; 5C9 100 µg/mL only: 0.5 pmol/mL | cyclic AMP; Exp 3; native human TSH 100 ng/mL + 5C9 IgG 0.001 µg/mL: 36 pmol/mL | cyclic AMP; Exp 3; native human TSH 100 ng/mL + 5C9 IgG 0.01 µg/mL: 28.4 pmol/mL | cyclic AMP; Exp 3; native human TSH 100 ng/mL + 5C9 IgG 0.1 µg/mL: 7.22 pmol/mL | cyclic AMP; Exp 3; native human TSH 100 ng/mL + 5C9 IgG 1.0 µg/mL: 0.67 pmol/mL | cyclic AMP; Exp 3; native human TSH 100 ng/mL + 5C9 IgG 10 µg/mL: 0.8 pmol/mL | cyclic AMP; Exp 3; native human TSH 100 ng/mL + 5C9 IgG 100 µg/mL: 1.35 pmol/mL | cyclic AMP; Exp 3; native porcine TSH 0.3 ng/mL + 5C9 IgG 0.001 µg/mL: 38.2 pmol/mL | cyclic AMP; Exp 3; native porcine TSH 0.3 ng/mL + 5C9 IgG 0.01 µg/mL: 26.6 pmol/mL | cyclic AMP; Exp 3; native porcine TSH 0.3 ng/mL + 5C9 IgG 0.1 µg/mL: 10.1 pmol/mL | cyclic AMP; Exp 3; native porcine TSH 0.3 ng/mL + 5C9 IgG 1.0 µg/mL: 2.28 pmol/mL | cyclic AMP; Exp 3; native porcine TSH 0.3 ng/mL + 5C9 IgG 10 µg/mL: 0.68 pmol/mL | cyclic AMP; Exp 3; native porcine TSH 0.3 ng/mL + 5C9 IgG 100 µg/mL: 1.03 pmol/mL | cyclic AMP; Exp 3; recombinant human TSH 100 ng/mL + 5C9 IgG 0.001 µg/mL: 25.6 pmol/mL | cyclic AMP; Exp 3; recombinant human TSH 100 ng/mL + 5C9 IgG 0.01 µg/mL: 22.9 pmol/mL | cyclic AMP; Exp 3; recombinant human TSH 100 ng/mL + 5C9 IgG 0.1 µg/mL: 1.18 pmol/mL | cyclic AMP; Exp 3; recombinant human TSH 100 ng/mL + 5C9 IgG 1.0 µg/mL: 0.81 pmol/mL | cyclic AMP; Exp 3; recombinant human TSH 100 ng/mL + 5C9 IgG 10 µg/mL: 0.74 pmol/mL | cyclic AMP; Exp 3; recombinant human TSH 100 ng/mL + 5C9 IgG 100 µg/mL: 0.88 pmol/mL | cyclic AMP; Exp 4; 5C9 0.1 µg/mL + TSH 0.3 ng/mL: 6.2 pmol/mL | cyclic AMP; Exp 4; 5C9 1 µg/mL + TSH 0.3 ng/mL: 1.65 pmol/mL | cyclic AMP; Exp 4; 5C9 10 µg/mL + TSH 0.3 ng/mL: 0.23 pmol/mL | cyclic AMP; Exp 4; 5C9 100 µg/mL + TSH 0.3 ng/mL: 0.29 pmol/mL | cyclic AMP; Exp 4; 5C9 100 µg/mL only: 0.15 pmol/mL | cyclic AMP; Exp 5; 5C9 0.1 µg/mL + TSH 0.3 ng/mL: 12.4 pmol/mL | cyclic AMP; Exp 5; 5C9 1 µg/mL + TSH 0.3 ng/mL: 2.57 pmol/mL | cyclic AMP; Exp 5; 5C9 5 µg/mL + TSH 0.3 ng/mL: 1.21 pmol/mL | cyclic AMP; Exp 5; 5C9 10 µg/mL + TSH 0.3 ng/mL: 1.17 pmol/mL | cyclic AMP; Exp 5; 5C9 10 µg/mL only: 0.38 pmol/mL | cyclic AMP; TSMAb 1 1 µg/mL + 5C9 IgG 100 µg/mL: 1.24 pmol/mL | cyclic AMP; TSMAb 2 1 µg/mL + 5C9 IgG 100 µg/mL: 2.26 pmol/mL | cyclic AMP; TSMAb 4 10 ng/mL + 5C9 IgG 100 µg/mL: 2.2 pmol/mL | cyclic AMP; TSMAb 5 100 ng/mL + 5C9 IgG 100 µg/mL: 0.85 pmol/mL | cyclic AMP; TSMAb 7 100 ng/mL + 5C9 IgG 100 µg/mL: 1.26 pmol/mL
